This is an account of results in article PMC11372217 (Nature Communications, 2024).

The assay addresses His-PADI4 (human, UniProt Q9UM07 1-663). Briefly: pull-down.

Sequence of His-PADI4 (Q9UM07 whole entry): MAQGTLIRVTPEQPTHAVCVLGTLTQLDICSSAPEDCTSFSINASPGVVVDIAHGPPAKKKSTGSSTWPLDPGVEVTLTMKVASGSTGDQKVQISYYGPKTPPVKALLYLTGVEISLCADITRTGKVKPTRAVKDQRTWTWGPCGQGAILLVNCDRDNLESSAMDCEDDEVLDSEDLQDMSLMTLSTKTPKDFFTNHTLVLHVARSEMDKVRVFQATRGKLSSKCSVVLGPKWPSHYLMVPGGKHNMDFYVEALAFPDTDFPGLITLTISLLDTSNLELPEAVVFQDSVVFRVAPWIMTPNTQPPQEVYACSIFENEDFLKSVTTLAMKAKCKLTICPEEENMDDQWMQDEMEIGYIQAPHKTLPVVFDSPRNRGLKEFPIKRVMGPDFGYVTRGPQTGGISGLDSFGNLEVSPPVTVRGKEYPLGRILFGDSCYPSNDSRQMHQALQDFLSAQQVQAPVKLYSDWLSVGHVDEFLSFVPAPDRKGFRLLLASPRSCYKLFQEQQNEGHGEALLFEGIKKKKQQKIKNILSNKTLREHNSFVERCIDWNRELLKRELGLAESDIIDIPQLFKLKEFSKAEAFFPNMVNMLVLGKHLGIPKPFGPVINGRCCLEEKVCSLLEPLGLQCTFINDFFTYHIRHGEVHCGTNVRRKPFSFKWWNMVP

B1: GST-HIF-1α (575-786) (domain or fragment, human, UniProt Q16665 575-786, looked up)
chain: RSFDQLSPLESSSASPESASPQSTVTVFQQTQIQEPTANATTTTATTDELKTVTKDRMEDIKILIASPSPTHIHKETTSATSSPYRDTQSRTASPNRAGKGVIEQTEKSHPRSPNVLSVALSQRTTVPEEELNPKILALQNAQRKRKMEHDGSLFQAVGIGTLLQQPDDHAATTSLSWKRVKGCKSSEQNGMEQKTIILIPSDLACRLLGQS
Consider B1, for which the binding result was “binds”.
